This note sets out measurements from a protein production outcome set (Wang et al. 2014).

A short description of the series: label from the status in PepcDB records.
For “MTQDELLVLIEQAATEGWRELDLSGQELTELPGEIGKLQQLESLILGKQVGGYEKVGYRIFQKALGNNLKTLPIELLSLPNLRKLDISGNPLEGIPDVVMQILHLEELILIRVQLTEIPEALAKLTNLTQLILSDNQITEIPEALAKLTNLTQLNLSYNQITEIPEALAKLTNLTQLNLSYNQITEIPEALAKLTNLTQLNLRGNQRTEIPEALAKLTNLTRLNLSYNQRTEIPEALAKLTNLTQLILSDNQIKEIPETIAKLTNLTHLILSGNQIKEIPETIAKLTNLTQLGLDGNQIKEIPEAIAKLTNLTQLGLDGNQIKEIPEAITKLTNLTHLILSGNQIKEIPETIAKLTNLTQLALSSNQITEIPEVLAQLTNLTQLFLSSNQITQIPEALAPLTNLTTLHLRVNQITQIPEAIESLPKLELLDLRGNPLPISPEILGSVYQVGSVEEIFNYLRLLRSGEVRPLNEAKLLLVGQGSVGKTSLIERLIHNKYDRNQPQTDGLKVETWNVQVNSKDIRLNVWDFGGQEIYHATHQFFLTKRSLYLLVCNCRTSEEENRIEYWLKLIESFGGQSPVIIVGNKKDEQPLDINRKALREKYPNIQAIIETSCQDNIGIDELRTAILQQVGNLKEVYDLLPLSWFEVKQQLESMSQDFITYSSYIGICYENKIPEEHNQEQLIDLLHRLGLVLNFREHPILRDTNVLKPNWVTEGIYALLSDENLKTKSKGIFTPADLTRVLNPERYPTKRHGYLIELMKEFELGFELACYPPQFLIAGLLPKDQPDATELEGETLEFQYHYKVLPESIISRFIVNTHERIHNQIYWRSGVMLQYQQHNEIYNIARIKADPEDKKIFIAISGRKETRRSFLAILRDVFQKIHKSLANLEITEWVPVPGYPNHPPLDYQELLGLETMGILEYPIGKLKININIRQLLDGYESLESRRKLQKGDHDLDDRTAYEDILDIAKLAVSRPIITKAEAKAVSENPQFTNNLQGANIANFANEVKDNASQQASNFNQTSGANIAEIMQLINNLRQTVAQFPPEIRDDIIIDIDDVEVEIQKPEKERNTPKLKKRLAALLTAASVAAAPIASVVDFTNNVMELGSKLGIELIQPSP”, the protein production result is “failed”.
The same measure for “MGQFYCLHCDRYFSNVSVRDDHFKTKKHKKRVNMMMGQAPHSQLDADLAGGMGMPDNGPKLMSNLVFTELRKPETEDLPGMGQFNCLLCHRNFSNASVMDYHFKTKKHKKRVKKIERPAPHSQLDADLAGGMGMPDNGPKLMSA”: “not failed”; for “MSSQLDECNRLLWEKCPVGLVLWRKNGALIDANSTYAAILGSTVPETLNFNYWQITPENYLASERTILEQLEQTGCHQAYEKEYLHQDGHLVPVKVSTVIIEKDGEKLMWSSVEDIS”: “not failed”; for “MKGFNIYTDESTLVSIGDDAGVYEHNGIIWVYTVDIITPVVNDPYLWGAISTANALSDVYAMGGIPVNALAISCFNNCELDIEIFREVIRGALDKLREAKTVLLGGHTIDDKEPKFGLSVAGICPEGKYITQSGAQVGQLLILTKPIGTGILIKGLKEGILKEEDINEAIENMLALNDKARNLMLSLDATACTDVTGFGLLGHAWNICKNSNIGARIFFEKVPYYQLSENLVKKKIYPKGAIENLNFVKNYLKSNLDNWKLILLSDPVTSGGLLFTINKEKLEKIDETAKELEVNYWIIGETIAENVLEVL”: “not failed”.
The same measure for “MASTNQELASALRMFSRFFDLIHQPLAVINERGEYVYYNQESADLDGYSIERAMGKHMLDVYPGMKETQSTMLSSLKKGVEYIGHYQIYYNARGQAVDYQHTTAPLYASDGGMVGVIEIGRNMSGVRRLQEQVVELNQLLYADHHEKHHAIITENPEMLSNIAKAKRLAASNIPVTIVGETGTGKELFSRLIHQCSKRANKPFIALNCGALPPTLIESTLFGTVRGAYTGAENSQGYLELANGGTLFLDELNAMPIEMQSKLLRFLQDKTFWRLGGQQQLHSDVRIVAAMNEAPVKLIQQERLRADLFYRLSVGMLTLPPLRARPEDIPLLANYFIDKYRNDVPQDIHGLSETARADLLNHAWPGNVRMLENAIVRSMIMQEKDGLLKHIIFEQDELNLGVPETAPENPLPSSPDPQYEGSLEVRVANYERHLIETALDTHQGNIAAAARSLNVSRTTLQYKVQKYAIRFGVVRN”: “failed”.
With “PFMDQSGGGVTFCGGEPLLHPEFLIDILKRCGQQGIHRAVDTTLLARKETVDEVMRNCELLLIDLKSMDSTVHQTFCDVPNELILKNIRRVAEADFPYYIRIPLIEGVNADEKNIKLSAEFLASLPRHPEIINLLPYHDIGKGKHAKLGSIYNPKGYKMQTPSEEVQQQCIQILTDYGLKATIGG” the entry was “not failed”; with “MSVNDQITHIGKTLSTTASAFLNYQKSNSNTQDVLTNNGPYKNLLSNTVNNASSTSYFYKRTEHGRFVKNASNTFEDIYSKTRRGDVFRNKFTDNKTCFRMLTYISDDLLNEIPTKEGLKSDADGKLLTEGGENENLRKNASKKETSLFQGFKSYLPIAELAIENTERLNYDTNGTSGTVGAKDVMSKTNERDEIHTELPNFQDSFLIPPGVETKKISSSYSPSALKSFSQTLVNSLEFLNIQKNSTLSEIRDIEVEVENLRQKKEKLLGKIANIEQNQLLLEDNLKQIDDRLDFLEEYGLEVIEANSDENAEDDGMSERKALKNDAIRNEGVTTESISSEASNLPPRRRQQLRDDNSLNRLGAFYSKSKKRHRKSFPTFQQLYEPGTKIGSIMSTHDDFLTCLDFDAPFGTLCTAGYLDHTVKIWDLSKQNKIGELAGHLATINCMQINRDYGTLVTGGRDAALKLWNLNLAQQLYQETQNLTSPTNHIDSPCVHTFEAHTDEVTALSLDPSFLVSGSQDRTIRQWDLRSGKCLQTIDLSFANVLTTSTNVDLSKSTLLTQRNERPSIGALQSFDAALATGTKDGVVRLWDLRSGKVIRTLKGHTDAITSLKFDSACLVTGSYDRTVRIWDLRTGLLNKFHAYSAPVLSLDLFQENAAVVVADEPSVQIYDSEKDESWSCVEQGNETSVSTVKYKENYMVEGRENGDVNIWAV”, “failed”; with “MMTAPGIYYDGRTSARRTVRLTLEGNRLLVAGEGVETSAELSRLAISSPLSTARRSVRFPSGALCEVSDTRFVDELMRRQGKGRASAAIHRWERSLPLALVALVATVAVVWGFVAFGIPALADKVARAVPPVTEVSLGRESLAMLDKLVFTPSRLPDARRRDIAAQFSRMGRDLPFAAGYRLEFRRSDQLGANALALPSGIIVVTDRLVEIAQSDDELIGVLAHEMGHVRHRHALRHVLQNSATGLIIAAITGDITSITSLAATLPTVLVDASYSRSFETEADDAAVAYLKRRGIPLKSYAAMLGRLEAEHRKKQEEKGKKEKKSLGDYFSTHPVTEERIKRVLEAGRLEHHHHHH”, “not failed”.
In the case of “MQIKELAELTGVSVRTLHHYDKIGLLVPQKDDWNGYRIYSEKDVDKLQQILFFKELDFPLKKIQQILDDPLFDKNVALDMQRHLLIEKKQRIETMLATLDLTIKNEKGEITMTNKEKFTGFDFSSNPYEEEARKLWGDKVVEKANEKVNNMSEKEQLTLKESFDAEFRHLASVRKLTPESEEAQLEIDHFFHYLNDTHGNIYSLEAFASLGEMYVNDERFTKNIDQFGDGLSQFLQEAMTIYAKNK”, the protein production result is listed as “not failed”.
The same measure for “MKAVANRYYVLCQEKVFIRSLLSGFFLLFISFLIMNFAGKYASLMAGNPVNDLILDNLPLRDVTLFHVNAAIIFWTIFTIYTLLNPAFIPFITKSAALFILIRCAFISMTHLGAPPNQLSIPDNFSSLVLFDGDLFFSGHVGGPFLMMLIFWNKTTLRYICLAAAVFFAYTVLIGHIHYSIDVFAAPFITYGIFHIGQFLFASDYQRLKSELTSSTGN”: “failed”; for “MRGYYDEISFDVNTTAKKMHLFLMRSIASYDVTPEQWSVLEGIEANEPISQKEIALWTKKDTPTVNRIVDVLLRKELIVREISTEDRRISLLSLTDKGRKETTELRDIVEASCEKMFAGVTRTDLEQFTAILKNISTNIE”: “not failed”.
As for “MELFEFLLIKYGYIALILILTGGIVGLPIPDEVLLTLVGYYISLGKMSYVLALLASFLGATLGISISYFLGTKLGLPFLMKYGPKFHISHQKIDHAQALFRKYGPILLFIGYFLPGVRHVTGYLSGLSKCKFRTFSLYAYTGAFIWCLVFITLGHEIGNKWYIVEKYLFKSSFLLFLLILCVIGYFIVRNKRMEKNAEKK”, the protein production entry is listed as “failed”.
The same measure for “MSTTGDSAPQISGTAESAKECADWQALLERIPYAQHLGLEVQRGDVGVLVHLPCREALIGNFMLPALHGGVLGALIELTARVAAQSQDAETRCPRILDSHINYLRSAKARSTFARADIIRQGRRTSLVQVTCWQGDDKKPIATGQVQLLLPTMAAQQEDRHGH”: “failed”; for “MGVQSAVRVHRAISEIGQDAWDACAASTGDPFVSYDFLSILEESGCVAARTGWAPQHLTVLDEADQVAGVMPLYLKSHSQGEYVFDHSWADAYERAGGRYYPKLQCSSPFSPVTGSRLIVRPDIDAAEGRSALMGGALTLCERMGASSLHVTFPVEDQWRWMGERGMLLRQDQQYHWENRGYETFDDFLGALSANRRKTIRRERRDAQEGLEIVALTGADLTEDHWDAFFAFYMDTGGRKWGRPYLNRPFFSLLGQRMADKVLLILARRPGGPFIAGALNLLGRDCLYGRHWGCVEDAPFLHFELCYYQAIEHAIRLGLPRVEAGAQGQHKIARGYLPSAVYSAHWIADPMLREPVARYLERERAAVESDMEMLTEEYSPFREER”: “failed”; for “ATRRYYLGAVELSWDYMQSDLGELPVDARFPPRVPKSFPFNTSVVYKKTLFVEFTDHLFNIAKPRPPWMGLLGPTIQAEVYDTVV”: “failed”.
For the sequence “MTVAVIGAHGGIGRRLLPRLNEAGHDPIGVVRSEDQFAAIRDRGAEPRLGDLEGEVASALDGADAVVFTAGAGGSTGWDKTILVDLWGAERAVHACEEKEIDRFVMVSSRGAGDPESRQGPIKPYIVAKHVADRTLQRSSLDETILRPTRLTDAEGTGRVAAYVDTDPDAGDPIPRADVAQAVVQCLADDNTVGHAITLYGGDTPIGEALRPSGLEHHHHHH”, the protein production result is given as “failed”.
With “MSVKVSVDDIDGITEVLNVYMNAAESGTGEEMSAAFHKDATIFGYVGDKLAFNGPIKDLYDWHNSNGPAKNVQSRITNIDIVGTVAHARVEAENWTNFKFSDLFLLLKLDGKWTIVNKVFHLHA” the entry was “not failed”; with “ESILANLSAGVIAFSGDWHIRAANTSASRILGVDFSQLAEHRFPEWGGVMPAVASLVETVMQHADSDVESDWQTQLGYDTAQGERTLLVRGARLPEHSSDGYVLVFNDITE”, “failed”; with “MERIEAGMSVMTLKKQTYRVIAVINQGQELLVRAHEPETADIEIIPVTTVVQVTEQNSTGDAAVALDTVTVVGERYVDDIVATLTTLRVGMAVLLQRESGNQYDDNAISVWTLQHAKLGYIARYQNQPYATLMDQGQRLYGIVTVLDQQKQHLELMLWRTTAVPSPIEALQIRQRLAKPRTNLGAVPTHSLQTPLGTIVMMCNGHPIKYQQVPLSPWLTPADELHVTKRYLLTPDWSQVPPDSLITCQVTAKADVVQRWQNEHISAAVLTNASSFYVVGISAQTKTGLNDNLVDDAAQPAVIYRVGQVSAHMQAGFMVSWAPFGDPRVQPALKLALHFSSQPLVPYHPVTPSRTNATFTQQELAALLVSALPNYQGGQRLEPSVTTITVEKLRQTLGDQTYHALANYQRHVQLVAGSTEGVNETLLQALIHAVTYHELTTMHYYQPTVGMVDQVIYPIQLFSTTTKDEDDAQLVGCLALYNYETFEIQQVPLTAIARIAIIADPEHPQTTPETESPDWLRIFLHGWNDDFLEHHHHHH”, “not failed”.
